Measurements: paper PMC9894173 (Proceedings of the National Academy of Sciences of the …, 2022)

Molecular target: His6-FLAG-MBP-tagged DHX15 (aa 113–795) (human, UniProt O43143 113-795)
Assay: co-IP

Chain of His6-FLAG-MBP-tagged DHX15 (aa 113–795) (O43143 113-795): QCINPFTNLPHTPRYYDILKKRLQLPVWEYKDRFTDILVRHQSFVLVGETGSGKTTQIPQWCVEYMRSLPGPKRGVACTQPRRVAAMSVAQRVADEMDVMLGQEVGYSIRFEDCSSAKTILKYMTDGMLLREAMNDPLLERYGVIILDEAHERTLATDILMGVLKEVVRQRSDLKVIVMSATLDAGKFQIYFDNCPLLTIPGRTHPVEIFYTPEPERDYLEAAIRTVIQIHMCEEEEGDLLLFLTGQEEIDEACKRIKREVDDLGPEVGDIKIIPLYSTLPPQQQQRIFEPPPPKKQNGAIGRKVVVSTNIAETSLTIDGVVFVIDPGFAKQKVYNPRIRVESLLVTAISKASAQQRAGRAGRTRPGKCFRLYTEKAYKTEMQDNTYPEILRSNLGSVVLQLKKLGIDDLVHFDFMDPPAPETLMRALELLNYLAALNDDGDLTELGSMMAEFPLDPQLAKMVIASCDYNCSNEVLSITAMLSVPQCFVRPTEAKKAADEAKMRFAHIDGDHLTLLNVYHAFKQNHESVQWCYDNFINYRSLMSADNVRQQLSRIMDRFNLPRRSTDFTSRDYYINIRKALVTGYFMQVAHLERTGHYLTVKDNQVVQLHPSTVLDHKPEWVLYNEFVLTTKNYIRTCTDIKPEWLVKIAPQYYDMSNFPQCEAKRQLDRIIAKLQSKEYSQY

- binding result: binds
B1: His6-HA-tagged SUGP1 WT (full length) (natural protein)
chain: MSLKMDNRDVAGKANRWFGVAPPKSGKMNMNILHQEELIAQKKREIEAKMEQKAKQNQVASPQPPHPGEITNAHNSSCISNKFANDGSFLQQFLKLQKAQTSTDAPTSAPSAPPSTPTPSAGKRSLLISRRTGLGLASLPGPVKSYSHAKQLPVAHRPSVFQSPDEDEEEDYEQWLEIKVSPPEGAETRKVIEKLARFVAEGGPELEKVAMEDYKDNPAFAFLHDKNSREFLYYRKKVAEIRKEAQKSQAASQKVSPPEDEEVKNLAEKLARFIADGGPEVETIALQNNRENQAFSFLYEPNSQGYKYYRQKLEEFRKAKASSTGSFTAPDPGLKRKSPPEALSGSLPPATTCPASSTPAPTIIPAPAAPGKPASAATVKRKRKSRWGPEEDKVELPPAELVQRDVDASPSPLSVQDLKGLGYEKGKPVGLVGVTELSDAQKKQLKEQQEMQQMYDMIMQHKRAMQDMQLLWEKAVQQHQHGYDSDEEVDSELGTWEHQLRRMEMDKTREWAEQLTKMGRGKHFIGDFLPPDELEKFMETFKALKEGREPDYSEYKEFKLTVENIGYQMLMKMGWKEGEGLGSEGQGIKNPVNKGTTTVDGAGFGIDRPAELSKEDDEYEAFRKRMMLAYRFRPNPLNNPRRPYY
